Results from article PMC3569036 (FEBS letters, 2012).

Target: calmodulin (vertebrate CaM amino acid sequence, encoded by a rat cDNA) (rat, UniProt P0DP29 1-149)
Assay: cryo-EM structure

binding result: binds
B1: bovine endothelial nitric oxide synthase (eNOS) with the phosphomimetic S1179D substitution (enzyme)
chain: MGNLKSVGQEPGPPCGLGLGLGLGLCGKQGPASPAPEPSRAPAPATPHAPDHSPAPNSPTLTRPPEGPKFPRVKNWELGSITYDTLCAQSQQDGPCTPRCCLGSLVLPRKLQTRPSPGPPPAEQLLSQARDFINQYYSSIKRSGSQAHEERLQEVEAEVASTGTYHLRESELVFGAKQAWRNAPRCVGRIQWGKLQVFDARDCSSAQEMFTYICNHIKYATNRGNLRSAITVFPQRAPGRGDFRIWNSQLVRYAGYRQQDGSVRGDPANVEITELCIQHGWTPGNGRFDVLPLLLQAPDEAPELFVLPPELVLEVPLEHPTLEWFAALGLRWYALPAVSNMLLEIGGLEFSAAPFSGWYMSTEIGTRNLCDPHRYNILEDVAVCMDLDTRTTSSLWKDKAAVEINLAVLHSFQLAKVTIVDHHAATVSFMKHLDNEQKARGGCPADWAWIVPPISGSLTPVFHQEMVNYILSPAFRYQPDPWKGSATKGAGITRKKTFKEVANAVKISASLMGTLMAKRVKATILYASETGRAQSYAQQLGRLFRKAFDPRVLCMDEYDVVSLEHEALVLVVTSTFGNGDPPENGESFAAALMEMSGPYNSSPRPEQHKSYKIRFNSVSCSDPLVSSWRRKRKESSNTDSAGALGTLRFCVFGLGSRAYPHFCAFARAVDTRLEELGGERLLQLGQGDELCGQEEAFRGWAKAAFQASCETFCVGEEAKAAAQDIFSPKRSWKRQRYRLSTQAEGLQLLPGLIHVHRRKMFQATVLSVENLQSSKSTRATILVRLDTAGQEGLQYQPGDHIGICPPNRPGLVEALLSRVEDPPPPTESVAVEQLEKGSPGGPPPSWVRDPRLPPCTLRQALTFFLDITSPPSPRLLRLLSTLAEEPSEQQELETLSQDPRRYEEWKWFRCPTLLEVLEQFPSVALPAPLLLTQLPLLQPRYYSVSSAPNAHPGEVHLTVAVLAYRTQDGLGPLHYGVCSTWLSQLKTGDPVPCFIRGAPSFRLPPDPYVPCILVGPGTGIAPFRGFWQERLHDIESKGLQPAPMTLVFGCRCSQLDHLYRDEVQDAQERGVFGRVLTAFSREPDSPKTYVQDILRTELAAEVHRVLCLERGHMFVCGDVTMATSVLQTVQRILATEGDMELDEAGDVIGVLRDQQRYHEDIFGLTLRTQEVTSRIRTQDFSLQERHLRGAVPWAFDPPGPDTPGP
